The record followed here is PMC6344896, “HuR biological function involves RRM3-mediated dimerization and RNA binding by all three RRMs”.

The target in data set [1] is HuR F247A/Y249A (human, UniProt Q15717 1-326, F247A;Y249A). The data set is described as follows: ITC; n=0.8; ITC: 50 mM sodium phosphate pH 7.0, 200 mM NaCl, 2 mM beta-mercaptoethanol, 298 K; NMR: 20 mM sodium phosphate pH 7.0, 200 mM NaCl, 5 mM DTT, 1 mM EDTA, 298 K. As to conditions: protein: recombinant; tags: untagged (tag cleaved).
Chain of HuR F247A/Y249A (Q15717 whole entry F247A/Y249A): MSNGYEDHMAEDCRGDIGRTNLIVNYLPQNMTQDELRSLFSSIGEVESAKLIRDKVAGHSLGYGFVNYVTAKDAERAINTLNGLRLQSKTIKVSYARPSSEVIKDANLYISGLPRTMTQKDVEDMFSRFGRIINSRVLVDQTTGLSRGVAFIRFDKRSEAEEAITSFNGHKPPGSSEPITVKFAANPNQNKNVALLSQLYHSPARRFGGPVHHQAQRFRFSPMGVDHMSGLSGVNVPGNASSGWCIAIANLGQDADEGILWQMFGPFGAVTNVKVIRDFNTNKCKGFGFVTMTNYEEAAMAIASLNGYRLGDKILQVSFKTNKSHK
Data set [2] deals with HuR W261E (human, UniProt Q15717 1-326, W261E). The data set is described as follows: ITC; n=0.9; ITC: 50 mM sodium phosphate pH 7.0, 200 mM NaCl, 2 mM beta-mercaptoethanol, 298 K; NMR: 20 mM sodium phosphate pH 7.0, 200 mM NaCl, 5 mM DTT, 1 mM EDTA, 298 K. Particulars: protein: recombinant; tags: untagged (tag cleaved). On the technique in general: ITC needs no label: the signal is the heat of the interaction.
Chain of HuR W261E (Q15717 whole entry W261E): as the sequence (Q15717 whole entry F247A/Y249A) above, with A247F, A249Y, W261E counted along it

Data set [3] addresses HuR GGS (human, UniProt Q15717 1-185+=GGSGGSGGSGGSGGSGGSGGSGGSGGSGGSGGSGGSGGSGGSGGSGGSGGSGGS+240-326, internal_change). The data set is described as above. Particulars: protein: recombinant; tags: pETM11 His6, cleaved.
In data set [4] the target is HuR WT (human, UniProt Q15717 1-326). Put plainly: ITC; n=0.7; ITC: 50 mM sodium phosphate pH 7.0, 200 mM NaCl, 2 mM beta-mercaptoethanol, 298 K; NMR: 20 mM sodium phosphate pH 7.0, 200 mM NaCl, 5 mM DTT, 1 mM EDTA, 298 K. Particulars: protein: recombinant; tags: untagged (His6-MBP cleaved).
Chain of HuR WT (Q15717 whole entry): as the sequence (Q15717 whole entry F247A/Y249A) above, with A247F, A249Y counted along it
The target of data set [5] is HuR F287A/F289A (human, UniProt Q15717 1-326, F287A;F289A). Described as above. As to conditions: protein: recombinant; tags: untagged (tag cleaved).
Chain of HuR F287A/F289A (Q15717 whole entry F287A/F289A): as the sequence (Q15717 whole entry F247A/Y249A) above, with A247F, A249Y, F287A, F289A counted along it
Data set [6] has as its target HuR F279A (human, UniProt Q15717 1-326, F279A). Put plainly: ITC; n=1.0; ITC: 50 mM sodium phosphate pH 7.0, 200 mM NaCl, 2 mM beta-mercaptoethanol, 298 K; NMR: 20 mM sodium phosphate pH 7.0, 200 mM NaCl, 5 mM DTT, 1 mM EDTA, 298 K. As to conditions: protein: recombinant; tags: untagged (tag cleaved).
Data set [7] addresses T1, HuR RRM3 (human, UniProt Q15717 243-326). Put plainly: ITC; 400 uM RNA into 20 uM RRM3; ITC: 50 mM sodium phosphate pH 7.0, 200 mM NaCl, 2 mM beta-mercaptoethanol, 298 K; NMR: 20 mM sodium phosphate pH 7.0, 200 mM NaCl, 5 mM DTT, 1 mM EDTA, 298 K. Particulars: protein: recombinant; tags: untagged (His6-GST cleaved with TEV).
Data set [8] concerns the target T1, HuR RRM3. Put plainly: NMR; 1:0.25 and 1:1.25; ITC: 50 mM sodium phosphate pH 7.0, 200 mM NaCl, 2 mM beta-mercaptoethanol, 298 K; NMR: 20 mM sodium phosphate pH 7.0, 200 mM NaCl, 5 mM DTT, 1 mM EDTA, 298 K. As to conditions: protein: recombinant; tags: untagged (His6-GST cleaved with TEV).
Data set [9] addresses T1, HuR RRM3. The data set is described as follows: ITC; n=1.1; ITC: 50 mM sodium phosphate pH 7.0, 200 mM NaCl, 2 mM beta-mercaptoethanol, 298 K; NMR: 20 mM sodium phosphate pH 7.0, 200 mM NaCl, 5 mM DTT, 1 mM EDTA, 298 K. Particulars: protein: recombinant; tags: untagged (His6-GST cleaved with TEV).
In data set [10] the target is HuR RRM3 F279A (human, UniProt Q15717 243-326, F279A). The data set is described as follows: ITC; n=0.6; ITC: 50 mM sodium phosphate pH 7.0, 200 mM NaCl, 2 mM beta-mercaptoethanol, 298 K; NMR: 20 mM sodium phosphate pH 7.0, 200 mM NaCl, 5 mM DTT, 1 mM EDTA, 298 K. Particulars: protein: recombinant; tags: untagged (His6-GST cleaved).
Chain of HuR RRM3 F279A (Q15717 243-326 F279A): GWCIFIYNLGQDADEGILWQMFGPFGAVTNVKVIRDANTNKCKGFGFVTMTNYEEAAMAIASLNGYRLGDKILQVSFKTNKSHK
In data set [11] the target is T1, HuR RRM3. Put plainly: ITC; n=0.8; ITC: 50 mM sodium phosphate pH 7.0, 200 mM NaCl, 2 mM beta-mercaptoethanol, 298 K; NMR: 20 mM sodium phosphate pH 7.0, 200 mM NaCl, 5 mM DTT, 1 mM EDTA, 298 K. Particulars: protein: recombinant; tags: untagged (His6-GST cleaved with TEV).
The target in data set [12] is T1, HuR RRM3. The data set is described as follows: ITC; 400 uM RNA into 20 uM RRM3; n=0.6; ITC: 50 mM sodium phosphate pH 7.0, 200 mM NaCl, 2 mM beta-mercaptoethanol, 298 K; NMR: 20 mM sodium phosphate pH 7.0, 200 mM NaCl, 5 mM DTT, 1 mM EDTA, 298 K. Particulars: protein: recombinant; tags: untagged (His6-GST cleaved with TEV).
The target of data set [13] is HuR RRM3 F247A/Y249A (human, UniProt Q15717 243-326, F247A;Y249A). The data set is described as follows: ITC; ITC: 50 mM sodium phosphate pH 7.0, 200 mM NaCl, 2 mM beta-mercaptoethanol, 298 K; NMR: 20 mM sodium phosphate pH 7.0, 200 mM NaCl, 5 mM DTT, 1 mM EDTA, 298 K. Particulars: protein: recombinant; tags: untagged (His6-GST cleaved).
Chain of HuR RRM3 F247A/Y249A (Q15717 243-326 F247A/Y249A): as the sequence (Q15717 243-326 F279A) above, with F5A, Y7A, A37F counted along it
For data set [14], the target named is T1, HuR RRM3. The data set is described as follows: NMR; changes comparable with U6; ITC: 50 mM sodium phosphate pH 7.0, 200 mM NaCl, 2 mM beta-mercaptoethanol, 298 K; NMR: 20 mM sodium phosphate pH 7.0, 200 mM NaCl, 5 mM DTT, 1 mM EDTA, 298 K. As to conditions: protein: recombinant; tags: untagged (His6-GST cleaved with TEV).
Data set [15] concerns the target T1, HuR RRM3. The data set is described as follows: ITC; ITC: 50 mM sodium phosphate pH 7.0, 200 mM NaCl, 2 mM beta-mercaptoethanol, 298 K; NMR: 20 mM sodium phosphate pH 7.0, 200 mM NaCl, 5 mM DTT, 1 mM EDTA, 298 K. Particulars: protein: recombinant; tags: untagged (His6-GST cleaved with TEV).

Usually Kd stands for a measure of binding affinity in units of concentration.

T1 sequence (Q15717 243-326): as the sequence (Q15717 243-326 F279A) above, with A37F counted along it
Chain of HuR GGS (Q15717 other isoform, or with tags, fused parts or gaps): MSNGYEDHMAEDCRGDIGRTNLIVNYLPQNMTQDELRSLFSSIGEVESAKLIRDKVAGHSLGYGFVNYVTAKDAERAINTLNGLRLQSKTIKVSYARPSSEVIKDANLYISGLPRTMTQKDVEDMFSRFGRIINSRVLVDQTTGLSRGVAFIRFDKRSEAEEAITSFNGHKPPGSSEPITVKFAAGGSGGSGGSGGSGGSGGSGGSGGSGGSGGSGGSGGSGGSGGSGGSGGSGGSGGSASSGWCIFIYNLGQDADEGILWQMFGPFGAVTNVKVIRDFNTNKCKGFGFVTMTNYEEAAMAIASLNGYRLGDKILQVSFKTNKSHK
Chain of HuR F279A (Q15717 whole entry F279A): as the sequence (Q15717 whole entry F247A/Y249A) above, with A247F, A249Y, F279A counted along it

With AUUUUUAUUUUAUUUUU (ssRNA) [AU17], the Kd in data set [1] was 0.351 ± 0.0199 µM; in data set [2], 0.041 ± 0.0048 µM; in [3] it was 0.0336 ± 0.0027 µM; in data set [4], 0.04 ± 0.0082 µM; in data set [5] it was 0.194 ± 0.0215 µM; in data set [6] it was 0.0288 ± 0.0044 µM.

Consider UUUUU (ssRNA) [U5], for which the Kd in data set [7] was 34 µM.

On to GAGCAC (ssRNA) [GC control], for which the binding result in data set [8] was “no binding”.

For the molecule UUUGUU (ssRNA) [GU6], the Kd in data set [9] came to 100 ± 18.2 µM.

As to UUUUUU (ssRNA) [U6], the Kd in data set [10] came to 44.6 ± 3.5 µM; in data set [11], 19.3 ± 0.3 µM; in data set [12] it was 15.8 ± 1.5 µM. Moreover, in [13], the binding result is “no binding”.

As for UUUUUUUUU (ssRNA) [U9], in data set [14], the binding result is reported as “binds”.

In the case of UUUAUU (ssRNA) [AU6], the Kd in data set [11] came to 47 ± 3.6 µM.

On to UAUUUA (ssRNA) [AU6tnf], for which the Kd in [15] came to 156 ± 32.8 µM.
